Data set [1] deals with T1, CTCF (Homo sapiens, UniProt P49711 1-727).
T1 sequence: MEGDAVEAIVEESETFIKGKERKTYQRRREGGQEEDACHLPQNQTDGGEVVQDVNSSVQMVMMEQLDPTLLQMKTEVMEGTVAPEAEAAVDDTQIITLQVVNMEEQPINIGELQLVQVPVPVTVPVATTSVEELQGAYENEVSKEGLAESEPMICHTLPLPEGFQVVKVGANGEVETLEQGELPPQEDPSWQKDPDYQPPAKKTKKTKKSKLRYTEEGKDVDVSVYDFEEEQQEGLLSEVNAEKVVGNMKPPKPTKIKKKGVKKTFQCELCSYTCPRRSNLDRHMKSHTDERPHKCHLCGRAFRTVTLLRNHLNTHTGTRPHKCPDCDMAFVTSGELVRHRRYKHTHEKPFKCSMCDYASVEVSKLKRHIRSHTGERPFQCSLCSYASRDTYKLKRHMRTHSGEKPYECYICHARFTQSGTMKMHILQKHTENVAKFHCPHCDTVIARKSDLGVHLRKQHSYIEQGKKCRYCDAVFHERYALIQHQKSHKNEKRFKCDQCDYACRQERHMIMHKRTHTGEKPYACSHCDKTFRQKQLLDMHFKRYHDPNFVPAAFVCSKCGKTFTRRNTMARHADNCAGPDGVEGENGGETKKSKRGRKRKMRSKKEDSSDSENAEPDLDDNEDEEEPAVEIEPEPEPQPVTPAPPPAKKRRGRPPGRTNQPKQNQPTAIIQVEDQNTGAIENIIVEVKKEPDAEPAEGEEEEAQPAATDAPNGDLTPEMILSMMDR
Nature of the data set: EMSA supershift; anti-CTCF antibody; supershift evident; Buffer, salt, pH and temperature not given; 40 pmol biotin probe, 200-fold cold competitor, 5% non-denaturing PAGE, LightShift Chemiluminescent EMSA kit. The conditions noted are these: protein: recombinant; label: 5'-biotin on strand 1; blunt. Background: In EMSA bound probe runs differently from free probe, usually more slowly.

Data set [2] addresses T1, CTCF. Nature of the data set: EMSA supershift; anti-CTCF antibody; Buffer, salt, pH and temperature not given; 40 pmol biotin probe, 200-fold cold competitor, 5% non-denaturing PAGE, LightShift Chemiluminescent EMSA kit. The conditions noted are these: protein: recombinant; label: 5'-biotin on strand 1; blunt.

B1: Blue-M5 (A allele) (dsDNA)
DNA 1: ACTTCTGCCACTAGAGGCAGGAGGG
DNA 2: CCCTCCTGCCTCTAGTGGCAGAAGT
Take B1: the binding result in data set [1] is reported as “binds”.

B2: White-M5 (G allele) (dsDNA)
DNA 1: ACTTCTGCCACTGGAGGCAGGAGGG
DNA 2: CCCTCCTGCCTCCAGTGGCAGAAGT
On to B2, for which the binding result in data set [2] was “no binding”.

The values are drawn from article PMC7688135, “Two cis-regulatory SNPs upstream of ABCG2 synergistically cause the blue eggshell phenotype in the duck”.
